Key:
Lysosomal release assay = type: in vitro ADME, human; settings: pH 5.5, 24 h; for Release in lysosomal extract: 10 μM linker-drug, human liver lysosomes 0.17 mg/mL, cysteine 5 mM, 37° C.
Excerpt: Lysosomal release assays were run to measure the release of the degrader from the L1 moeity in an environment that mimics intracellular milieu. For the degrader to be active at binding BRM and ferrying it to the ubiquitin ligase, the L1 must first be released.
The assay was run using an L1 bound to the BRM-binding compound, named “L1-BRM1-#” that corresponds to the respective CIDE. The test determine whether cleavage of the covalent attachment of the L1 to the BRM portion occurred. Linker-drugs ([…]) were incubated with human liver lysosomes (0.17 mg/mL) and cysteine (5 mM) in 100 mM citric acid buffer pH 5.5 for 24 h. The samples were analyzed by Q Exactive Orbitrap mass specrometers using LC mobile phase containing (A) 0.1% formic acid in water and (B) 0.1% formic acid in acetonitrile in a gradient.

BRM [1] = target: T1, BRM (Homo sapiens, UniProt P51531); assay: Cell assay to determine DC50 and Dmax (nuclear BRM immunofluorescence), NCI-H1944 cells; type: cell-based; settings: 24 h drug treatment, nuclear BRM signal
T1 construct: endogenous in cells; host or cells: HCC515
Protocol: (§1) Cell based assays were run in […] cell lines to determine the DC50 and Dmax of Ab-L1-CIDE. BJAB, HCC515 and H1944 cells were plated in 384 well plates at 5000, 4000 and 2500 cells/well, respectively. The next day Ab-CIDEs were added. Following 24 h of drug treatment the cells were fixed with 4% formaldehyde for 15 minutes. The plates were washed three time with PBS. The cells were incubated with IF blocking solution (10% FCS, 1% BSA, […] in PBS). After 1.5 h a 2× solution of primary antibody diluted in IF blocking buffer: BRM (Cell signaling Cat #11966, 1:2000) was added. The plates were incubated over night at 4° C. The following morning cells were washed three time with PBS. Cells were then incubated with secondary antibodies (rabbit-Alexa 488 A21206 (1:2000)) for 1 h at room temperature in the dark. Hoechst H3570 at 1:5000 was added to the wells and the plates were incubated for an additional 30 minutes. Plates were wash 3×PBS and image on Opera Phenix™ High Content Screening System. Using nuclear staining as a mask, nuclear BRM mean signal intensity was quantified.
(§2) The data evidence the successful antibody targeting strategies disclosed herein.

BRM [2] = target: T1, BRM; assay: Cell assay to determine DC50 and Dmax (nuclear BRM immunofluorescence), HCC515 cells; type: cell-based; settings: 24 h drug treatment, nuclear BRM signal
Protocol: as §1, §2

T1 sequence (P51531 whole entry): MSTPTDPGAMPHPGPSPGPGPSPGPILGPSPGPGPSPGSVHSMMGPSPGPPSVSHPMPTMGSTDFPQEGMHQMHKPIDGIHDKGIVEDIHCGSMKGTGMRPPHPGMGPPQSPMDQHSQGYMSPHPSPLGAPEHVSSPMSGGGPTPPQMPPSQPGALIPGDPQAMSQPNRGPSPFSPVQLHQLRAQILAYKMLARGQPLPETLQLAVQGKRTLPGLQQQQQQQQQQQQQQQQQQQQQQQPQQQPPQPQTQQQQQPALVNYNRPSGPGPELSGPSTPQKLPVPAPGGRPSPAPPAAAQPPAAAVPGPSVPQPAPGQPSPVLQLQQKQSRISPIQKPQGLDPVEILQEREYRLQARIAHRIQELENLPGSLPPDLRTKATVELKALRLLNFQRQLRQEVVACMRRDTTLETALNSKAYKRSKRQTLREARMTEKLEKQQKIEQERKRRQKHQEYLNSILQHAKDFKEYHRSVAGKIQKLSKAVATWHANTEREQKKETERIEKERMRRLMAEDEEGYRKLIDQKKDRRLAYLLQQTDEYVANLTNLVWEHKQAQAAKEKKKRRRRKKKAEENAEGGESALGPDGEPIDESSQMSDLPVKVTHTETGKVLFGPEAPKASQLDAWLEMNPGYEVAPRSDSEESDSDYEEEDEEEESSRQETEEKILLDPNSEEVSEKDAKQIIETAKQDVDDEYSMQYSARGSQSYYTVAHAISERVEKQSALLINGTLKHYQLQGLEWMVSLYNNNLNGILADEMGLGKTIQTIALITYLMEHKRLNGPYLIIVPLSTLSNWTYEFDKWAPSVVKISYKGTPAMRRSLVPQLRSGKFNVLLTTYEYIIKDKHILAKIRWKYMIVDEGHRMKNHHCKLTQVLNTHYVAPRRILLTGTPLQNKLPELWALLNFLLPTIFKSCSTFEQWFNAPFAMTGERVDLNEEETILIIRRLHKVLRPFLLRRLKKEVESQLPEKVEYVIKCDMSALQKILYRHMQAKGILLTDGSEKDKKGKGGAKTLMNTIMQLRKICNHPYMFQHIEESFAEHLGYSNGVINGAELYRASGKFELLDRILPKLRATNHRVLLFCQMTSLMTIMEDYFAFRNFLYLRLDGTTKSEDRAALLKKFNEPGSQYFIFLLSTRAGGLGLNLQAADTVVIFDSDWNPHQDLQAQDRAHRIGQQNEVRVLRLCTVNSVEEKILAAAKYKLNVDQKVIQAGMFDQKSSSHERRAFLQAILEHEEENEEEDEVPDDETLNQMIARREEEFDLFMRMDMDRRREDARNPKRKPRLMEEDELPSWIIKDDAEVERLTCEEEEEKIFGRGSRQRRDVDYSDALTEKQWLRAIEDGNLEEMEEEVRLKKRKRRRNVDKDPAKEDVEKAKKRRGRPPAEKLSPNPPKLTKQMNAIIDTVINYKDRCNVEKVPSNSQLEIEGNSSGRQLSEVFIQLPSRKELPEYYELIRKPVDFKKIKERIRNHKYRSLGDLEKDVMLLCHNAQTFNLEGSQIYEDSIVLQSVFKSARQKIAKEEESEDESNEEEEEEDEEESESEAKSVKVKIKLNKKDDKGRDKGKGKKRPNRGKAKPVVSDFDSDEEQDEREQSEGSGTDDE

Row | Molecule | Release in lysosomal extract (Lysosomal release assay) | NCI-HI944 DC50 (BRM [1]) [µg/mL] | NCI-HI944 Dmax (BRM [1]) | also measured
1 | Cc1ncsc1-c1ccc([C@H](C)NC(=O)[C@@H]2C[C@@H](OC(=O)OC(C)C(C)(C)SS(C)(=O)=O)CN2C(=O)[C@@H](c2cc(OCCN3CCN(CCOc4cc(N5C6CCC5CN(c5cc(-c7ccccc7OCOP(=O)(O)O)nnc5N)C6)ccn4)[C@H](C)C3)no2)C(C)C)cc1 (stereo partly shown) [L1-BRM1-9] | Yes (“Yes” indicates >50% free drug observed after 24 h incubation at 37 °C in lysosomal extract.) | – | – | –
2 | Cc1ncsc1-c1ccc([C@H](C)NC(=O)[C@@H]2C[C@@H](O)CN2C(=O)[C@@H](c2cc(OCCN3CCN(CCOc4cc(N5C6CCC5CN(c5cc(-c7ccccc7OCc7ccc(NC(=O)[C@H](CCCNC(N)=O)NC(=O)C8(C(=O)NCCCCCN9C(=O)C=CC9=O)CCC8)cc7)nnc5N)C6)ccn4)[C@H](C)C3)no2)C(C)C)cc1 [L1-BRM1-13] | Yes (“Yes” indicates >50% free drug observed after 24 h incubation at 37 °C in lysosomal extract.) | – | – | –
3 | Cc1ncsc1-c1ccc([C@H](C)NC(=O)[C@@H]2C[C@@H](O)CN2C(=O)[C@@H](c2cc(OCCN3CCN(CCOc4cc(N5C6CCC5CN(c5cc(-c7ccccc7O)nnc5NC(=O)OCc5ccc(NC(=O)[C@H](CCCNC(N)=O)NC(=O)C7(C(=O)NCCCCCN8C(=O)C=CC8=O)CCC7)cc5)C6)ccn4)[C@H](C)C3)no2)C(C)C)cc1 [L1-BRM1-20] | Yes (“Yes” indicates >50% free drug observed after 24 h incubation at 37 °C in lysosomal extract.) | – | – | –
4 | Cc1ncsc1-c1ccc([C@H](C)NC(=O)[C@@H]2C[C@@H](O)CN2C(=O)[C@@H](c2cc(OCCN3CCN(CCOc4cc(N5C6CCC5CN(c5cc(-c7ccccc7OS(=O)(=O)Oc7cc(C(=O)NCCOCCOCCOCCn8cc(COCCOCCOCCOCCNC(=O)CCN9C(=O)C=CC9=O)nn8)ccc7O[C@@H]7O[C@H](CO)[C@H](O)[C@H](O)[C@H]7O)nnc5N)C6)ccn4)[C@H](C)C3)no2)C(C)C)cc1 [L1-CIDE-BRM1-15] | – | – | – | Release of the degrader in lysosomal extracts (Lysosomal release assay; human liver lysosomes): did not release the degrader
5 | Thio Hu Anti-TfR1.NG2LH.FcRn null high DAR [HC:L174C HC:Y373C LC:K149C] MC-sqCit BRM CIDE Ab-L1-CIDE-BRM1-13 (conjugate) heavy: EVQLVQSGAEVKKPGASVKVSCKASGYTFTSYWMHWVRQAPGQRLEWIGEINPTNGRTNYIEKFKSRATLTVDKSASTAYMELSSLRSEDTAVYYCARGTRAYHYWGQGTMVTVSSASTKGPSVFPLAPSSKSTSGGTAALGCLVKDYFPEPVTVSWNSGALTSGVHTFPAVCQSSGLYSLSSVVTVPSSSLGTQTYICNVNHKPSNTKVDKKVEPKSCDKTHTCPPCPAPPVAGPSVFLFPPKPKDTLMISRTPEVTCVVVDVSHEDPEVKFNWYVDGVEVHNAKTKPREEQYGSTYRVVSVLTVLHQDWLNGKEYKCKVSNKALPAPIEKTISKAKGQPREPQVYTLPPSREEMTKNQVSLTCLVKGFCPSDIAVEWESNGQPENNYKTTPPVLDSDGSFFLYSKLTVDKSRWQQGNVFSCSVMHEALHNHYTQKSLSLSPGK light: DIQMTQSPSSLSASVGDRVTITCRASDNLYSNLAWYQQKPGKSPKLLVYDATNLADGVPSRFSGSGSGTDYTLTISSLQPEDFATYYCQHFWGTPLTFGQGTKVEIKRTVAAPSVFIFPPSDEQLKSGTASVVCLLNNFYPREAKVQWCVDNALQSGNSQESVTEQDSKDSTYSLSSTLTLSKADYEKHKVYACEVTHQGLSSPVTKSFNRGEC | – | 0.07 | 77 | –
6 | Thio Hu Anti-TfR2.NG2LH high DAR [HC:L174C HC:Y373C LC:K149C] diMe Me disulfide BRM degrader phos Ab-L1-CIDE-BRM1-9 (conjugate) heavy: EVQLVQSGAEVKKPGASVKVSCKASGYTFTSYWMHWVRQAPGQRLEWIGEINPTNGRTNYIEKFKSRATLTVDKSASTAYMELSSLRSEDTAVYYCARGTRAYHYWGQGTMVTVSSASTKGPSVFPLAPSSKSTSGGTAALGCLVKDYFPEPVTVSWNSGALTSGVHTFPAVCQSSGLYSLSSVVTVPSSSLGTQTYICNVNHKPSNTKVDKKVEPKSCDKTHTCPPCPAPPVAGPSVFLFPPKPKDTLMISRTPEVTCVVVDVSHEDPEVKFNWYVDGVEVHNAKTKPREEQYGSTYRVVSVLTVLHQDWLNGKEYKCKVSNKALPAPIEKTISKAKGQPREPQVYTLPPSREEMTKNQVSLTCLVKGFCPSDIAVEWESNGQPENNYKTTPPVLDSDGSFFLYSKLTVDKSRWQQGNVFSCSVMHEALHNHYTQKSLSLSPGK light: DIQMTQSPSSLSASVGDRVTITCRASDNLYSNLAWYQQKPGKSPKLLVYDATNLADGVPSRFSGSGSGTDYTLTISSLQPEDFATYYCQHFAGTPLTFGQGTKVEIKRTVAAPSVFIFPPSDEQLKSGTASVVCLLNNFYPREAKVQWCVDNALQSGNSQESVTEQDSKDSTYSLSSTLTLSKADYEKHKVYACEVTHQGLSSPVTKSFNRGEC | – | 0.74 | 94 | HCC515 DC50 (BRM [2]): 0.12 µg/mL; HCC515 Dmax (BRM [2]): 96

Source: patent US20230330249A1, “ANTIBODY-CONJUGATED CHEMICAL INDUCERS OF DEGRADATION OF BRM AND METHODS THEREOF” (Genentech, Inc., priority 2020, published 2023)
